The target in this data set is Optineurin (OPTN) (Homo sapiens, UniProt Q96CV9 1-577). Briefly: tryptophan fluorescence quenching titration.

Where “and” joins values, the source holds several entries; their conditions need not be identical. Identical values can stand only once.

From publication PMC9972007 come the findings set out here.

Usually Kd stands for the concentration at which binding is half-saturated. Higher therefore signals weaker binding.

Optineurin (OPTN), sequence (Q96CV9 whole entry): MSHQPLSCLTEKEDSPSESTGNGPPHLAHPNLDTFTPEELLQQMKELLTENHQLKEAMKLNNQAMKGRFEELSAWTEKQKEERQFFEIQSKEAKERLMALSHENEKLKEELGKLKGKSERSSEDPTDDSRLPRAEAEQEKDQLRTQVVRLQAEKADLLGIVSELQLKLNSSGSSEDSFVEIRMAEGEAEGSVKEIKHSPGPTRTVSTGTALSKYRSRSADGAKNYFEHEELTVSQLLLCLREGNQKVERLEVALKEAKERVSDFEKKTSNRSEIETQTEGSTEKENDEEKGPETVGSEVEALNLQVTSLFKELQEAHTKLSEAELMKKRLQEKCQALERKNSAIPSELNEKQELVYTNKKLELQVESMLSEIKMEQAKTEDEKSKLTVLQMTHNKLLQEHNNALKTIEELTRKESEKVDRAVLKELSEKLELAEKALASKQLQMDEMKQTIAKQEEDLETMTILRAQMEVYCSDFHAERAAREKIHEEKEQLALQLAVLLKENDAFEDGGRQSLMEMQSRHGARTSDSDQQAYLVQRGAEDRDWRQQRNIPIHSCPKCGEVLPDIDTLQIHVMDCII

B1: UG-repeat RNA 24-mer (ssRNA)
RNA: UGUGUGUGUGUGUGUGUGUGUGUG
For the molecule B1, the Kd is 4.61 µM and 4.49 µM.
